This note sets out measurements from IntAct's records for PubMed 25991726.

B1: Ribosome maturation protein SBDS (Homo sapiens), Q9Y3A5 (parent)
chain: MSIFTPTNQIRLTNVAVVRMKRAGKRFEIACYKNKVVGWRSGVEKDLDEVLQTHSVFVNVSKGQVAKKEDLISAFGTDDQTEICKQILTKGEVQVSDKERHTQLEQMFRDIATIVADKCVNPETKRPYTVILIERAMKDIHYSVKTNKSTKQQALEVIKQLKEKMKIERAHMRLRFILPVNEGKKLKEKLKPLIKVIESEDYGQQLEIVCLIDPGCFREIDELIKKETKGKGSLEVLNLKDVEEGDEKFE
partner: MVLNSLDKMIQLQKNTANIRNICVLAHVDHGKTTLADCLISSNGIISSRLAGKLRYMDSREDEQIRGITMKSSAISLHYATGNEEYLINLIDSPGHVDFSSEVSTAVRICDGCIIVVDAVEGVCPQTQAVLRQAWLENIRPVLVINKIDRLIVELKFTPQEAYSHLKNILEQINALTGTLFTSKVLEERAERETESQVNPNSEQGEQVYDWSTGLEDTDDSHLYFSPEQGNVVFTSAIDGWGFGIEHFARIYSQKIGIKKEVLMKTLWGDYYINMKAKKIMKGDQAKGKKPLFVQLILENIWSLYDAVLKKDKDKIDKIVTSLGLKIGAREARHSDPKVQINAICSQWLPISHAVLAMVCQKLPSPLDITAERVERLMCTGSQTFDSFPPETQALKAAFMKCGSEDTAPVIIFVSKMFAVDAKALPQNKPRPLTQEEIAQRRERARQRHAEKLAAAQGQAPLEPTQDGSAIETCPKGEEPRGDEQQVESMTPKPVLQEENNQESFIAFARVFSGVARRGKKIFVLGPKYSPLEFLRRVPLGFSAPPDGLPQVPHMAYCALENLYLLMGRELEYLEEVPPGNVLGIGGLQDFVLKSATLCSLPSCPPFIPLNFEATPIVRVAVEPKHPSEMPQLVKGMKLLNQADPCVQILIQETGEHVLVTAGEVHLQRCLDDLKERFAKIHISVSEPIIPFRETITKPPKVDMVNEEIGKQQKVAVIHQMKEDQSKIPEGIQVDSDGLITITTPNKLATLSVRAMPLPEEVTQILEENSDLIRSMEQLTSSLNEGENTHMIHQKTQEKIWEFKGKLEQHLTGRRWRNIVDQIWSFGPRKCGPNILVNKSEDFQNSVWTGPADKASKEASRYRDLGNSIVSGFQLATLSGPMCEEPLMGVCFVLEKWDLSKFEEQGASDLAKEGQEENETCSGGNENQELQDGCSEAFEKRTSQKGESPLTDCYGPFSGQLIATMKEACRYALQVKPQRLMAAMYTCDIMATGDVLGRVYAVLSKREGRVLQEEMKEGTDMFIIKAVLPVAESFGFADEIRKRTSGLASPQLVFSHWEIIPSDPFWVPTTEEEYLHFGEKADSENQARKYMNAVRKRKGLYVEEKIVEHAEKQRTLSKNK

Variants of B1 are the subject of this experiment. To be noted: with efl1_human EFL1, Q7Z2Z2.
In the case of MSIFTPTNQIRLTNVAVVRMKRAGKRFEIACYKNKVVGWRSGVEKDLDEVLQTHSVFVNVSKGQVAKKEDLISAFGTDDQTEICKQILTKGEVQVSDKERHTQLEQMFRDIATIVADKCVNPETKRPYTVILIERAMKDIHYLVKTNKSTKQQALEVIKQLKEKMKIERAHMRLRFILPVNEGKKLKEKLKPLIKVIESEDYGQQLEIVCLIDPGCFREIDELIKKETKGKGSLEVLNLKDVEEGDEKFE [S143L], the “effect of a mutation on the interaction” value was “decreasing interaction strength”.
